The target in this assay is T1, soluble human GPC3 (human, UniProt P51654 25-563, limits assumed).
T1 construct: also called glypican 3
Put plainly: SPR (Biacore), single-arm antibody, soluble human GPC3.

The values below come from patent US20210388110A1 (published 2021).

T1 sequence (P51654 other isoform, or with tags, fused parts or gaps limits assumed, form in doubt): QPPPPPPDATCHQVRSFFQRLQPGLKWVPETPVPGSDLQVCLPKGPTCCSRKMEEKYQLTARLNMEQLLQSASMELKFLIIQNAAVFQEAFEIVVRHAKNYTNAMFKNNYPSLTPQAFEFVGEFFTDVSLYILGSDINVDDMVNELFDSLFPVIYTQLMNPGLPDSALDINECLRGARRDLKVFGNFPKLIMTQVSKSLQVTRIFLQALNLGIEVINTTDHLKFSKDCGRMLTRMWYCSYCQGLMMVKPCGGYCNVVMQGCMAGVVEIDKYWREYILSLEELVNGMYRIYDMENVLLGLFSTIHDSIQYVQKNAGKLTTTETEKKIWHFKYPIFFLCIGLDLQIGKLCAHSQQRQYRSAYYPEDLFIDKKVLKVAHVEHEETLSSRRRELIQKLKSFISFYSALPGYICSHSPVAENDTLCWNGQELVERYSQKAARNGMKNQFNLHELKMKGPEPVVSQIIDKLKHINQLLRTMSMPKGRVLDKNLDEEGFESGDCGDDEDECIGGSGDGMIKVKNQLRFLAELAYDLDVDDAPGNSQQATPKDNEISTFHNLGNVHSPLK

B1: GCH026-G1dh/none-Hi-Kn010G3/L0000-k0 (antibody, human IgG1, kappa)
heavy: not shown
chain: EPKSSDKTHTCPPCPAPELLGGPSVFLFPPKPKDTLMISRTPEVTCVVVDVSHEDPEVKFNWYVDGVEVHNAKTKPREEQYNSTYRVVSVLTVLHQDWLNGKEYKCKVSNKALPAPIEKTISKAKGQPREPQVCTLPPSRDELTKNQVSLWCLVKGFYPSDIAVEWESNGQPENNYKTTPPVLDSDGSFFLYSKLTVDKSRWQQGNVFSCSVMHEALHNRYTQKSLSLSP
light: DIVMTQSPLSLPVTPGEPASISCRSSQSLVHSNRNTYLHWYQQKPGQAPRLLIYKVSNRFSGVPDRFSGSGSGTDFTLKISRVEAEDVGVYYCGQGTQVPYTFGQGTKLEIKRTVAAPSVFIFPPSDEQLKSGTASVVCLLNNFYPREAKVQWKVDNALQSGNSQESVTEQDSKDSTYSLSSTLTLSKADYEKHKVYACEVTHQGLSSPVTKSFNRGEC
notes: single-arm antibody
What is called Kd is the concentration at which binding is half-saturated. Read a low Kd as tighter binding. B1 had an equilibrium dissociation constant (Kd) of 5.17 nM.

B2: GCH059-G1dh/none-Hi-Kn010G3/L0000-k0 (antibody, human IgG1, kappa)
heavy: not shown
chain: EPKSSDKTHTCPPCPAPELLGGPSVFLFPPKPKDTLMISRTPEVTCVVVDVSHEDPEVKFNWYVDGVEVHNAKTKPREEQYNSTYRVVSVLTVLHQDWLNGKEYKCKVSNKALPAPIEKTISKAKGQPREPQVCTLPPSRDELTKNQVSLWCLVKGFYPSDIAVEWESNGQPENNYKTTPPVLDSDGSFFLYSKLTVDKSRWQQGNVFSCSVMHEALHNRYTQKSLSLSP
light: DIVMTQSPLSLPVTPGEPASISCRSSQSLVHSNRNTYLHWYQQKPGQAPRLLIYKVSNRFSGVPDRFSGSGSGTDFTLKISRVEAEDVGVYYCGQGTQVPYTFGQGTKLEIKRTVAAPSVFIFPPSDEQLKSGTASVVCLLNNFYPREAKVQWKVDNALQSGNSQESVTEQDSKDSTYSLSSTLTLSKADYEKHKVYACEVTHQGLSSPVTKSFNRGEC
notes: single-arm antibody
The molecule B2 showed a Kd of 5.7 nM.

B3: GCH057-G1dh/none-Hi-Kn010G3/L0000-k0 (antibody, human IgG1, kappa)
heavy: not shown
chain: EPKSSDKTHTCPPCPAPELLGGPSVFLFPPKPKDTLMISRTPEVTCVVVDVSHEDPEVKFNWYVDGVEVHNAKTKPREEQYNSTYRVVSVLTVLHQDWLNGKEYKCKVSNKALPAPIEKTISKAKGQPREPQVCTLPPSRDELTKNQVSLWCLVKGFYPSDIAVEWESNGQPENNYKTTPPVLDSDGSFFLYSKLTVDKSRWQQGNVFSCSVMHEALHNRYTQKSLSLSP
light: DIVMTQSPLSLPVTPGEPASISCRSSQSLVHSNRNTYLHWYQQKPGQAPRLLIYKVSNRFSGVPDRFSGSGSGTDFTLKISRVEAEDVGVYYCGQGTQVPYTFGQGTKLEIKRTVAAPSVFIFPPSDEQLKSGTASVVCLLNNFYPREAKVQWKVDNALQSGNSQESVTEQDSKDSTYSLSSTLTLSKADYEKHKVYACEVTHQGLSSPVTKSFNRGEC
notes: single-arm antibody
For the molecule B3, the affinity, expressed as Kd, was 5.61 nM.

B4: GCH055-G1dh/none-Hi-Kn010G3/L0000-k0 (antibody, human IgG1, kappa)
heavy: not shown
chain: EPKSSDKTHTCPPCPAPELLGGPSVFLFPPKPKDTLMISRTPEVTCVVVDVSHEDPEVKFNWYVDGVEVHNAKTKPREEQYNSTYRVVSVLTVLHQDWLNGKEYKCKVSNKALPAPIEKTISKAKGQPREPQVCTLPPSRDELTKNQVSLWCLVKGFYPSDIAVEWESNGQPENNYKTTPPVLDSDGSFFLYSKLTVDKSRWQQGNVFSCSVMHEALHNRYTQKSLSLSP
light: DIVMTQSPLSLPVTPGEPASISCRSSQSLVHSNRNTYLHWYQQKPGQAPRLLIYKVSNRFSGVPDRFSGSGSGTDFTLKISRVEAEDVGVYYCGQGTQVPYTFGQGTKLEIKRTVAAPSVFIFPPSDEQLKSGTASVVCLLNNFYPREAKVQWKVDNALQSGNSQESVTEQDSKDSTYSLSSTLTLSKADYEKHKVYACEVTHQGLSSPVTKSFNRGEC
notes: single-arm antibody
Turning to B4, the Kd was found to be 5.6 nM. This Kd and that of the molecule before are within 1.5-fold of each other.

B5: GCH056-G1dh/none-Hi-Kn010G3/L0011-k0 (antibody, human IgG1, kappa)
heavy: not shown
chain: EPKSSDKTHTCPPCPAPELLGGPSVFLFPPKPKDTLMISRTPEVTCVVVDVSHEDPEVKFNWYVDGVEVHNAKTKPREEQYNSTYRVVSVLTVLHQDWLNGKEYKCKVSNKALPAPIEKTISKAKGQPREPQVCTLPPSRDELTKNQVSLWCLVKGFYPSDIAVEWESNGQPENNYKTTPPVLDSDGSFFLYSKLTVDKSRWQQGNVFSCSVMHEALHNRYTQKSLSLSP
light: DIVMTQSPLSLPVTPGEPASISCRSSQPLVHSNRNTYLHWYQQKPGQAPRLLIYKVSNRFSGVPDRFSGSGSGTDFTLKISRVEAEDVGVYYCGQGTQVPYTFGQGTKLEIKRTVAAPSVFIFPPSDEQLKSGTASVVCLLNNFYPREAKVQWKVDNALQSGNSQESVTEQDSKDSTYSLSSTLTLSKADYEKHKVYACEVTHQGLSSPVTKSFNRGEC
notes: single-arm antibody
Regarding B5, binding was characterised by a dissociation constant (Kd) of 4.31 nM.

B6: GCH032-G1dh/none-Hi-Kn010G3/L0000-k0 (antibody, human IgG1, kappa)
heavy: not shown
chain: EPKSSDKTHTCPPCPAPELLGGPSVFLFPPKPKDTLMISRTPEVTCVVVDVSHEDPEVKFNWYVDGVEVHNAKTKPREEQYNSTYRVVSVLTVLHQDWLNGKEYKCKVSNKALPAPIEKTISKAKGQPREPQVCTLPPSRDELTKNQVSLWCLVKGFYPSDIAVEWESNGQPENNYKTTPPVLDSDGSFFLYSKLTVDKSRWQQGNVFSCSVMHEALHNRYTQKSLSLSP
light: DIVMTQSPLSLPVTPGEPASISCRSSQSLVHSNRNTYLHWYQQKPGQAPRLLIYKVSNRFSGVPDRFSGSGSGTDFTLKISRVEAEDVGVYYCGQGTQVPYTFGQGTKLEIKRTVAAPSVFIFPPSDEQLKSGTASVVCLLNNFYPREAKVQWKVDNALQSGNSQESVTEQDSKDSTYSLSSTLTLSKADYEKHKVYACEVTHQGLSSPVTKSFNRGEC
notes: single-arm antibody
On to B6, for which the equilibrium dissociation constant (Kd) turned out to be 5.74 nM.

B7: GCH034-G1dh/none-Hi-Kn010G3/L0000-k0 (antibody, human IgG1, kappa)
heavy: not shown
chain: EPKSSDKTHTCPPCPAPELLGGPSVFLFPPKPKDTLMISRTPEVTCVVVDVSHEDPEVKFNWYVDGVEVHNAKTKPREEQYNSTYRVVSVLTVLHQDWLNGKEYKCKVSNKALPAPIEKTISKAKGQPREPQVCTLPPSRDELTKNQVSLWCLVKGFYPSDIAVEWESNGQPENNYKTTPPVLDSDGSFFLYSKLTVDKSRWQQGNVFSCSVMHEALHNRYTQKSLSLSP
light: DIVMTQSPLSLPVTPGEPASISCRSSQSLVHSNRNTYLHWYQQKPGQAPRLLIYKVSNRFSGVPDRFSGSGSGTDFTLKISRVEAEDVGVYYCGQGTQVPYTFGQGTKLEIKRTVAAPSVFIFPPSDEQLKSGTASVVCLLNNFYPREAKVQWKVDNALQSGNSQESVTEQDSKDSTYSLSSTLTLSKADYEKHKVYACEVTHQGLSSPVTKSFNRGEC
notes: single-arm antibody
In turn, B7 had a dissociation constant Kd of 5.09 nM.

B8: GCH054-G1dh/none-Hi-Kn010G3/L0000-k0 (antibody, human IgG1, kappa)
heavy: not shown
chain: EPKSSDKTHTCPPCPAPELLGGPSVFLFPPKPKDTLMISRTPEVTCVVVDVSHEDPEVKFNWYVDGVEVHNAKTKPREEQYNSTYRVVSVLTVLHQDWLNGKEYKCKVSNKALPAPIEKTISKAKGQPREPQVCTLPPSRDELTKNQVSLWCLVKGFYPSDIAVEWESNGQPENNYKTTPPVLDSDGSFFLYSKLTVDKSRWQQGNVFSCSVMHEALHNRYTQKSLSLSP
light: DIVMTQSPLSLPVTPGEPASISCRSSQSLVHSNRNTYLHWYQQKPGQAPRLLIYKVSNRFSGVPDRFSGSGSGTDFTLKISRVEAEDVGVYYCGQGTQVPYTFGQGTKLEIKRTVAAPSVFIFPPSDEQLKSGTASVVCLLNNFYPREAKVQWKVDNALQSGNSQESVTEQDSKDSTYSLSSTLTLSKADYEKHKVYACEVTHQGLSSPVTKSFNRGEC
notes: single-arm antibody
In turn, B8 registered a Kd of 5.3 nM. This Kd and that of the molecule before are within 1.5-fold of each other.

B9: GCH068-G1dh/none-Hi-Kn010G3/L0000-k0 (antibody, human IgG1, kappa)
heavy: not shown
chain: EPKSSDKTHTCPPCPAPELLGGPSVFLFPPKPKDTLMISRTPEVTCVVVDVSHEDPEVKFNWYVDGVEVHNAKTKPREEQYNSTYRVVSVLTVLHQDWLNGKEYKCKVSNKALPAPIEKTISKAKGQPREPQVCTLPPSRDELTKNQVSLWCLVKGFYPSDIAVEWESNGQPENNYKTTPPVLDSDGSFFLYSKLTVDKSRWQQGNVFSCSVMHEALHNRYTQKSLSLSP
light: DIVMTQSPLSLPVTPGEPASISCRSSQSLVHSNRNTYLHWYQQKPGQAPRLLIYKVSNRFSGVPDRFSGSGSGTDFTLKISRVEAEDVGVYYCGQGTQVPYTFGQGTKLEIKRTVAAPSVFIFPPSDEQLKSGTASVVCLLNNFYPREAKVQWKVDNALQSGNSQESVTEQDSKDSTYSLSSTLTLSKADYEKHKVYACEVTHQGLSSPVTKSFNRGEC
notes: single-arm antibody
B9 registered a Kd of 6.23 nM.

B10: GCH067-G1dh/none-Hi-Kn010G3/L0000-k0 (antibody, human IgG1, kappa)
heavy: not shown
chain: EPKSSDKTHTCPPCPAPELLGGPSVFLFPPKPKDTLMISRTPEVTCVVVDVSHEDPEVKFNWYVDGVEVHNAKTKPREEQYNSTYRVVSVLTVLHQDWLNGKEYKCKVSNKALPAPIEKTISKAKGQPREPQVCTLPPSRDELTKNQVSLWCLVKGFYPSDIAVEWESNGQPENNYKTTPPVLDSDGSFFLYSKLTVDKSRWQQGNVFSCSVMHEALHNRYTQKSLSLSP
light: DIVMTQSPLSLPVTPGEPASISCRSSQSLVHSNRNTYLHWYQQKPGQAPRLLIYKVSNRFSGVPDRFSGSGSGTDFTLKISRVEAEDVGVYYCGQGTQVPYTFGQGTKLEIKRTVAAPSVFIFPPSDEQLKSGTASVVCLLNNFYPREAKVQWKVDNALQSGNSQESVTEQDSKDSTYSLSSTLTLSKADYEKHKVYACEVTHQGLSSPVTKSFNRGEC
notes: single-arm antibody
With B10, the Kd is 5.24 nM.

B11: GCH061-G1dh/none-Hi-Kn010G3/L0000-k0 (antibody, human IgG1, kappa)
heavy: not shown
chain: EPKSSDKTHTCPPCPAPELLGGPSVFLFPPKPKDTLMISRTPEVTCVVVDVSHEDPEVKFNWYVDGVEVHNAKTKPREEQYNSTYRVVSVLTVLHQDWLNGKEYKCKVSNKALPAPIEKTISKAKGQPREPQVCTLPPSRDELTKNQVSLWCLVKGFYPSDIAVEWESNGQPENNYKTTPPVLDSDGSFFLYSKLTVDKSRWQQGNVFSCSVMHEALHNRYTQKSLSLSP
light: DIVMTQSPLSLPVTPGEPASISCRSSQSLVHSNRNTYLHWYQQKPGQAPRLLIYKVSNRFSGVPDRFSGSGSGTDFTLKISRVEAEDVGVYYCGQGTQVPYTFGQGTKLEIKRTVAAPSVFIFPPSDEQLKSGTASVVCLLNNFYPREAKVQWKVDNALQSGNSQESVTEQDSKDSTYSLSSTLTLSKADYEKHKVYACEVTHQGLSSPVTKSFNRGEC
notes: single-arm antibody
Regarding B11, binding was put at a Kd of 5.13 nM.

B12: GCH056-G1dh/none-Hi-Kn010G3/L0000-k0 (antibody, human IgG1, kappa)
heavy: not shown
chain: EPKSSDKTHTCPPCPAPELLGGPSVFLFPPKPKDTLMISRTPEVTCVVVDVSHEDPEVKFNWYVDGVEVHNAKTKPREEQYNSTYRVVSVLTVLHQDWLNGKEYKCKVSNKALPAPIEKTISKAKGQPREPQVCTLPPSRDELTKNQVSLWCLVKGFYPSDIAVEWESNGQPENNYKTTPPVLDSDGSFFLYSKLTVDKSRWQQGNVFSCSVMHEALHNRYTQKSLSLSP
light: DIVMTQSPLSLPVTPGEPASISCRSSQSLVHSNRNTYLHWYQQKPGQAPRLLIYKVSNRFSGVPDRFSGSGSGTDFTLKISRVEAEDVGVYYCGQGTQVPYTFGQGTKLEIKRTVAAPSVFIFPPSDEQLKSGTASVVCLLNNFYPREAKVQWKVDNALQSGNSQESVTEQDSKDSTYSLSSTLTLSKADYEKHKVYACEVTHQGLSSPVTKSFNRGEC
notes: single-arm antibody
In turn, B12 registered a Kd of 5.03 nM.
